The values below come from article PMC11630572.

In experiment [1] the target is recombinant spike ectodomain of SARS-CoV-2 Omicron subvariant BA.5 (SARS-CoV-2). As to the kind of experiment: cryo-EM structure; complexes of BA.5 or JN.1 spike ectodomain with Nanosota-9-His (0.8 uM); three Nanosota-9 on each trimeric spike, two of them crosslinking two RBDs (2:2 mode).
Experiment [2] addresses recombinant spike ectodomain of SARS-CoV-2 Omicron subvariant JN.1 (SARS-CoV-2). The description is as above.

For “recombinant spike ectodomain of SARS-CoV-2 Omicron subvariant BA.5 (domain or fragment)”, in experiment [1], the stoichiometry N is 3.

For “recombinant spike ectodomain of SARS-CoV-2 Omicron subvariant JN.1 (domain or fragment)”, the stoichiometry N in experiment [2] came out at 3.

The stoichiometry N is a count of units in the complex or per binding partner.
